Test results from patent US20200002421A1, “ANTI-B7-H3 ANTIBODIES AND ANTIBODY DRUG CONJUGATES” (AbbVie Inc., priority 2016, published 2020).

T1: huB7-H3 (Homo sapiens, UniProt Q5ZPR3)
T1 construct: His tag (6xHis) (C)
T1 sequence (Q5ZPR3 with tags, fused parts or gaps): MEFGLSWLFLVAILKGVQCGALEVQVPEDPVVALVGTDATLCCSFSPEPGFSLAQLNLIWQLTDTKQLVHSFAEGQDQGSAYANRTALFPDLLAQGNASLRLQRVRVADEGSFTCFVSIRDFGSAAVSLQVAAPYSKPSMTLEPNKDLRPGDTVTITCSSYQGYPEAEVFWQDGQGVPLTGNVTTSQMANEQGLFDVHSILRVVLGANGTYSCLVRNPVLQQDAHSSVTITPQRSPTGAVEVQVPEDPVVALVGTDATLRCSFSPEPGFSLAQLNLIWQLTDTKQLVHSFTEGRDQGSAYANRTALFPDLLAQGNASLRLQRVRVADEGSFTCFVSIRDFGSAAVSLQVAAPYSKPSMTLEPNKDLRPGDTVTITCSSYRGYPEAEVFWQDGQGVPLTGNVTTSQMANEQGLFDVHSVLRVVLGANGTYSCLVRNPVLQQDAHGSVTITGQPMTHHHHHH

T2: human B7-H3 (Homo sapiens, UniProt Q5ZPR3)
T2 construct: His tag (6xHis) (C)
T2 sequence (Q5ZPR3 with tags, fused parts or gaps): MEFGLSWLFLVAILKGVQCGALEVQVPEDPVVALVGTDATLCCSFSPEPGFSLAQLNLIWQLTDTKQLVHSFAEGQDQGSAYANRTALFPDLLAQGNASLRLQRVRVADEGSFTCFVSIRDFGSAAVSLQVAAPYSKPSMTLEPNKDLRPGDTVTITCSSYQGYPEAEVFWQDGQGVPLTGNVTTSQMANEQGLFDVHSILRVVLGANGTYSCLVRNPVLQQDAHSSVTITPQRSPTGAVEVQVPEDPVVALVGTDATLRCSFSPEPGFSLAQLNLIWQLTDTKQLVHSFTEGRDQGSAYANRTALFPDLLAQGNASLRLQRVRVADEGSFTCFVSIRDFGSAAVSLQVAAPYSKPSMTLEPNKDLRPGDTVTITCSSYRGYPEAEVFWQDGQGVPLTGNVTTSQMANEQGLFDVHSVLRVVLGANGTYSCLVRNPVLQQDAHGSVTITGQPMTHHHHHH


What was measured:
[1] = target: T1, huB7-H3; test: Biacore T200 SPR binding kinetics, mAb capture; conditions: Table 3
Description: The binding affinity of the purified anti-B7-H3 monoclonal antibodies was determined by surface […]. […] The binding kinetics were derived from SPR measurements using a Biacore T200 instrument and a mAb capture approach (as described in the materials and methods below).
Biacore T200 SPR instruments were used to measure the binding kinetics of human B7-H3 (4Ig-B7-H3 variant) (analyte) binding to various mAbs (ligands). The assay format was Fc-based capture via immobilized anti-mouse (Fc) (Pierce 31170) or immobilized anti-human (Fc) (Pierce 31125). A standard amine coupling protocol was employed to immobilize the capture reagents via primary amines to the carboxy-methyl (CM) dextran surface of CM5 sensorchips (Biacore); capture antibodies were coupled to a level of approximately 5000 RU. For binding kinetic measurements the assay buffer was HBS-EP+(Biacore): 10 mM Hepes, pH7.4, 150 mM NaCl, 3 mM EDTA, 0.05% polysorbate 20. During the assay, all measurements were referenced against the capture surface alone. Each assay cycle consisted of the following steps: 1) Capture of ligand to approximately 50 RU; 2) Analyte injection over both reference and test surface, 240 μL at 80 μL/min, after which the dissociation was monitored for 900 seconds at 80 μL/min; 3) Regeneration of capture surface with low pH glycine. For kinetic determinations analyte injections were 3-point, 9-fold dilution series of 900 nM, 100 nM and 11.11 nM, buffer only injections were included for secondary referencing. Data were processed and fit to a 1:1 binding model using Biacore T200 Evaluation Software to determine the binding kinetic rate constants, ka (on-rate) and kd (off-rate), and the equilibrium dissociation constant (affinity, KD).

[2] = target: T2, human B7-H3; test: Epitope grouping by pair-wise Biacore SPR binding; conditions: simultaneous binding assay, FIG. 1
Text: Pair-wise binding assays performed on Biacore T200 SPR instruments were used to determine the relative epitope grouping for the murine anti-B7-H3 mAbs as described in the methods below. […] Epitope groups are represented as individual ovals, some of which overlap with each other. Antibodies in different epitope groups can bind to B7-H3 simultaneously and likely bind to different epitopes while antibodies within a given epitope group cannot bind to B7-H3 simultaneously and likely bind to overlapping epitopes. The grouping information was derived from a simultaneous binding assay as described in materials and methods. Ab3, Ab4, Ab5, Abl 1, Ab12, and Ab8 groupings were ambiguous
Pair-wise binding assays performed on Biacore T200 SPR instruments were used to determine the relative epitope grouping for a series of anti-B7-H3 mAbs. The assay format was Fc-based capture via immobilized anti-mouse (Fc) (Pierce 31170) or immobilized anti-human (Fc) (Pierce 31125). A standard amine coupling protocol was employed to immobilize the capture reagents via primary amines to the carboxy-methyl (CM) dextran surface of CM5 sensorchips (Biacore); capture antibodies were coupled to a level of approximately 2000 RU. Epitope grouping measurements were done at 12° C. (low temperature allows for grouping information on fast off-rate mAbs), the assay buffer was HBS-EP+(Biacore): 10 mM Hepes, pH7.4, 150 mM NaCl, 3 mM EDTA, 0.05% polysorbate 20. Each assay cycle consisted of the following steps in a four flowcell system: 1) separate test mAbs were captured in flowcells 2, 3 & 4 (flowcell 1 was reference, no test mAb); 2) all 4 flowcells were then blocked by injection with isotype control mAb or isotype mAb cocktail at 50 μg/mL; 3) all 4 flowcells were then injected with antigen or buffer only (buffer only is for double referencing, done for each mAb pair individually); 4) all 4 flowcells were then injected with 2nd test mAb at 10 μg/mL; 5) all 4 flowcells were then regenerated with glycine, pH1.5. The assay was done for each test mAb pair in reciprocal orientations. Simultaneous binding was evaluated examining the ratio of the 2nd test mAb response to the Ag response (RUmAb2/RUAg); if this ratio was equal to or greater than 0.2 the interaction was scored as a simultaneous binder. From this pair-wise binding assay data a “venn” style diagram was constructed manually to depict relative epitope groupings.

[3] = test system: HCC38 cell line; test: In vitro cell viability assay (CellTiter-Glo), HCC38; type: cell-based, human; conditions: conjugated to synthon CZ
Description: The tumor cell lines HCC38 (breast cancer), NCI-H1650 (NSCLC) and NCI-H847 (small cell lung cancer cell line) were obtained from American Type Culture Collection (ATCC). Cells were grown in 96-well culture plates using recommended growth media overnight at a density of 5×10^3 (HCC38) or 20×10^3 (NCI-H847) or 40×10^3 (NCI-H1650) per well. The following day, treatments were added in fresh media to triplicate wells. Cellular viability was determined 5 days later using the CellTiter-Glo Luminescent Cell Viability Assay kit (Promega), as directed in the manufacturer's protocol. Cell viability was assessed as percentage of control untreated cells.

[4] = Conjugation observation (precipitation after conjugation, Method A); type: physicochemical; conditions: conjugated to synthon CZ
Description: Table 6 provides cell surface binding and cytotoxicity activity of anti-B7-H3 chimera ADCs against breast cancer cell HCC38 expressing human B7-H3.
A solution of Bond-Breaker™ tris(2-carboxyethyl)phosphine (TCEP) solution (10 mM, 0.017 mL) was added to a solution of antibody (10 mg/mL, 1 mL) preheated to 37° C. The reaction mixture was kept at 37° C. for 1 hour. The solution of reduced antibody was added to a solution of synthon (3.3 mM, 0.160 mL in DMSO) and gently mixed for 30 minutes. The reaction solution was loaded onto a desalting column (PD10, washed with Dulbecco's phosphate-buffered saline [DPBS] 3× before use), followed by DPBS (3 mL). The purified ADC solution was filtered through a 0.2 micron, low protein-binding 13 mm syringe-filter and stored at 4° C.

Row | huB7-H3 ka(1/Ms) [1] | epitope grouping [2] | Molecule | cytotoxicity in cells expressing human B7-H3 / HCC38 cell line (in words) [3] | precipitation following conjugation to synthon CZ (in words) [4]
1 | 58000 M⁻¹ s⁻¹ | ambiguous | Ab8: mouse hybridoma anti-B7-H3 monoclonal antibody, mouse IgG1/k (antibody, V domains shown) VH: EVKLVESGGGLVKPGGSLKLSCAASGFTFSSYGMSWVRQTPEKRLEWVATISGGGNYTYCPDSVKGRFTISRDNAKNNLYLQMSSLRSEDTALYYCTRQRGYDYHYAMDFWGQGTSVTVSS VL: DIQMTQSPASLSVSVGETVTITCRASENIYSNLAWHQQKQGKSPQLLVYAATNLADGVPSRFSGNGSDTQYSLKINSLQSEDFGSYFCQNFWGTSWTFGGGTKLEIK | – | –
2 | 38000 M⁻¹ s⁻¹ | ambiguous | Ab12: mouse hybridoma anti-B7-H3 monoclonal antibody, mouse IgG1/k (antibody, V domains shown) VH: EVQLVESGGGLVKPGGSLKLSCAASGFTFSSYAMSWVRQTPEKRLEWVATISSGTNYTYYPDSVKGRFTISRDNAKNTLYLQMTSLRSEDTAMYYCARQGRYSWIAYWGQGTLVTVSA VL: DIVLTQSPASLAVSLGQRATISCRASKSVSTSDYSYMHWNQQKPGQPPKLLIYLASNLESGVPARFSGSGSGTDFTLNIHPVEEEDAATYYCQHSRELLTFGAGTKLELK | – | –
3 | 20000 M⁻¹ s⁻¹ | ambiguous | Ab11: mouse hybridoma anti-B7-H3 monoclonal antibody, mouse IgG1/k (antibody, V domains shown) VH: EVKLVESGGGLVQPGGSLRLSCATSGFTFTNYYMSWVRQPPGKALEWLGFIRNKANDYTTEYSASVKGRFTISRDNSQSILYLQMNTLRAEDSATYYCARESPGNPFAYWGQGTLVTVSA VL: DIVMTQSPSSLTVTAGEKVTMTCKSSQSLLNSGTQKNFLTWYQQKPGQPPKLLIYWASTRESGVPDRFTGSGSGTDFTLTISSVQAEDLAVYFCQNDYIYPLTFGAGTKLELK | – | –

Second part, the molecule before the results:

Row | Molecule | huB7-H3 ka(1/Ms) [1] | epitope grouping [2] | cytotoxicity in cells expressing human B7-H3 / HCC38 cell line (in words) [3] | precipitation following conjugation to synthon CZ (in words) [4]
4 | chAb6: chimeric anti-B7-H3 antibody huIgG1/k, parental hybridoma Ab6; VH SEQ ID NO: 56, VL SEQ ID NO: 60 (antibody, V domains shown, human IgG1/kappa constant regions; Synthetic chAb6 VH amino acid sequence; Synthetic chAb6 VL amino acid sequence) VH: QVQLQQSGAELMKPGASVKISCKATGYTFSRYWIEWVKQRPGHGLEWIGEILPGSGSTNYNEKFKGKATFTADTSSNTAYMQVSSLTSEDSAVHYCARRGYGYVPYALDYWGQGTSVTVSS VL: EIQMTQTTSSLSASLGDRVTISCRASQDISNSLNWYQQKPDGTVNLLIYYTSRLYSGVPSRFSGSGSGTDYSLTISNLEQEDIATYFCQQGNTLPYTFGGGTKLEIK | – | – | weak cytotoxicity | precipitated
5 | chAb16: chimeric anti-B7-H3 antibody huIgG1/k, parental hybridoma Ab16; VH SEQ ID NO: 72, VL SEQ ID NO: 76 (antibody, V domains shown, human IgG1/kappa constant regions; Synthetic chAb16 VH amino acid sequence; Synthetic chAb16 VL amino acid sequence) VH: EVKLLESGGGLVQPGGSLKLSCAASGFDFSRYWMSWVRQAPGKGLEWIGEINPDSSTINYTPSLKDKFIISRDNAKNTLYLQMSKVRSEDTALYYCARPGFGNYIYAMDYWGQGTSVTVSS VL: DIQMTQTTSSLSASLGDRVTINCRASQDISNFLNWYQQKPDGTVKLLIYYTSRLYLGVPSRFSGSGSGTDYSLTISNLEQEDIATYFCQQGNTLPPTFGGGTKLEIK | – | – | weak cytotoxicity | precipitated
6 | chAb2: chimeric anti-B7-H3 antibody huIgG1/k, parental hybridoma Ab2; VH SEQ ID NO: 1, VL SEQ ID NO: 5 (antibody, V domains shown, human IgG1/kappa constant regions; Synthetic chAb2 VH amino acid sequence; Synthetic chAb2 VL amino acid sequence) VH: QVQLQQPGAELVKPGASVKLSCKASGYTFTSYWMHWVKQRPGQGLEWIGMIHPDSGTTNYNEKFRSKATLTVDKSSSTAYMQLSSLTSEDSAVYYCAVYYGSTYWYFDVWGTGTTVTVSS VL: DVVMTQTPLSLPVSLGDQAYISCRSSQSLVHINGNTYLHWYRQKPGQSPKLLIYKVSNRFSGVPDRFSGSGSGTDFTLKISRVEAEDLGVYFCSQSTHFPFTFGSGTKLEIK | – | – | weak cytotoxicity | precipitated
